71 molecules from patent US20250011363A1, “OPTIMIZED SHORTENED PEPTIDE THAT BINDS TO ACETYLCHOLINE RECEPTOR, AND USE THEREOF” (SKINMED CO., LTD., priority 2021, published 2025) can be followed below.

The assay concerns the target acetylcholine receptor. The assay is described as follows: SPR, AchR immobilised on CM5 chip, peptide 10 uM.

Consider RKYTPK [6mer-1-1053], for which the Binding affinity (RU) was 27 RU. Under RDSDRR [6mer-2-609] stands 24 RU. With RRCMMK [6mer-1-1048] the figure was 36 RU; with KREEWR [6mer-1-1015], 26 RU.

As for RKATDK [6mer-1-1047], the Binding affinity (RU) was determined as 30 RU.

Molecule RRICMR [6mer-1-1062] yielded a Binding affinity (RU) of 27 RU. With KRFPWR [6mer-1-1058] the figure was 21 RU. Under KRKPVR [6mer-1-1057] stands 43 RU; under RKPTAK [6mer-1-1064], 41 RU.

Turning to RKKPEK [6mer-1-1011], the Binding affinity (RU) was 35 RU. As for KNCGKK [6mer-2-605], the Binding affinity (RU) turned out to be 17 RU. With KDNGRK [6mer-2-615] the figure was 27 RU; with KKFCFR [6mer-1-1030], 30 RU. Regarding KKNAWR [6mer-1-1014], the Binding affinity (RU) came out at 25 RU. The molecule KRIEFR [6mer-1-1040] came in with a Binding affinity (RU) of 28 RU. Under KRHWIR [6mer-1-1052] stands 33 RU; under RCNGRR [6mer-2-617], 32 RU.

For the molecule KKTTNK [6mer-1-1013], the Binding affinity (RU) was found to be 29 RU. Under RRKKIR [6mer-1-1038] stands 21 RU. Under KFHARR [6mer-2-603] stands 32 RU; under KRDAWR [6mer-1-1019], 37 RU. In turn, KAANRR [6mer-2-613] gave a Binding affinity (RU) of 18 RU.

RKTEIR [6mer-1-1024]: the Binding affinity (RU) came out at 36 RU. RRETVK [6mer-1-1059] yielded a Binding affinity (RU) of 39 RU. Under KRYNVR [6mer-1-1060] stands 21 RU.

Turning to KKMEDR [6mer-1-1050], the Binding affinity (RU) stood at 38 RU.

Take RNTPKR [6mer-2-602]: the Binding affinity (RU) came out at 24 RU. Under KKTAFK [6mer-1-1018] stands 28 RU; under RKPFRR [6mer-2-606], 15 RU.

Molecule KKHDIK [6mer-1-1021] came in with a Binding affinity (RU) of 41 RU. With RKKCER [6mer-1-1026], the Binding affinity (RU) amounted to 30 RU. With KRIMHK [6mer-1-1023] the figure was 39 RU; with KKPWHK [6mer-1-1027], 22 RU; with RRCHHR [6mer-1-1035], 34 RU. Under RRCMAK [6mer-1-1029] stands 40 RU. Under RRAWVR [6mer-1-1012] stands 35 RU. KRADIK [6mer-1-1039] returned a Binding affinity (RU) of 40 RU. The molecule KRHTHR [6mer-1-1016] gave a Binding affinity (RU) of 21 RU.

On to KAWIRR [6mer-2-614], for which the Binding affinity (RU) amounted to 19 RU. In turn, KKASDR [6mer-1-1034] displayed a Binding affinity (RU) of 24 RU. Regarding KKMEAK [6mer-1-1020], the Binding affinity (RU) is 38 RU. RKDTVR [6mer-1-1022] came in with a Binding affinity (RU) of 22 RU. With RKDTHK [6mer-1-1031] the figure was 38 RU; with RRISIR [6mer-1-1061], 41 RU. Under RKEHGK [6mer-1-1041] stands 23 RU. Regarding RKDPHR [6mer-1-1046], the Binding affinity (RU) came out at 38 RU. Under RRKNNR [6mer-1-1037] stands 36 RU; under RIKMRR [6mer-2-611], 22 RU; under KRANMK [6mer-1-1017], 37 RU. In turn, KKIDHK [6mer-1-1063] had a Binding affinity (RU) of 25 RU. KEPIRK [6mer-2-604] gave a Binding affinity (RU) of 16 RU. KNSHKK [6mer-2-601] showed a Binding affinity (RU) of 25 RU. Under KKHHIR [6mer-1-1044] stands 24 RU; under KRFAKR [6mer-1-1025], 33 RU. Regarding RRHCWR [6mer-1-1028], the Binding affinity (RU) came to 36 RU. The molecule KRCNDK [6mer-1-1055] returned a Binding affinity (RU) of 40 RU. Under KKDHKK [6mer-1-1049] stands 31 RU; under KKKSFK [6mer-1-1051], 43 RU; under RKNPKR [6mer-2-610], 32 RU. KKWVKR [6mer-2-607] displayed a Binding affinity (RU) of 31 RU. Under RDCVRK [6mer-2-612] stands 17 RU. Under RRMKVK [6mer-1-1054] stands 37 RU. With KKITAR [6mer-1-1042] the figure was 40 RU. The molecule KKITFR [6mer-1-1036] displayed a Binding affinity (RU) of 21 RU. Under KKTPGR [6mer-1-1045] stands 27 RU; under KRHMVK [6mer-1-1033], 30 RU. With RCNHKK [6mer-2-608] the figure was 32 RU.

Molecule KRAAHR [6mer-1-1043] yielded a Binding affinity (RU) of 30 RU. Under RRNTAK [6mer-1-1056] stands 27 RU; under KKTSMR [6mer-1-1032], 27 RU; under REPHRK [6mer-2-616], 26 RU.
